Data taken from patent US20110038869A1 (Genmab, published 2011).
Numbering of substitutions follows the chain as printed.

T1: full length CD32a on stably transfected IIA1.6 cells (human, UniProt P12318 34-317)
T1 construct: whole, on cells; also called IIA1.6-CD32a; CD32a-expressing IIA1.6 cells
T1 sequence (looked up): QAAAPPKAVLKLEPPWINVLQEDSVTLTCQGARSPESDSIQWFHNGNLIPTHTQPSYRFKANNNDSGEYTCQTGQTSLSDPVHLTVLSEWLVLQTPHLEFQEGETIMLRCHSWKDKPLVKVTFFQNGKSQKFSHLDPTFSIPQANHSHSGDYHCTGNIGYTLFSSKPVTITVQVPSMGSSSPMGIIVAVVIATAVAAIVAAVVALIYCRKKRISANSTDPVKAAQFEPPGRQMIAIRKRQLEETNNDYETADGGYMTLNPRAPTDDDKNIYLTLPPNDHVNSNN

T2: full length CD32b2 on transfected IIA1.6 cells (human, UniProt P31994-2 43-291)
T2 construct: whole, on cells; also called IIA1.6-CD32b2
T2 sequence (looked up): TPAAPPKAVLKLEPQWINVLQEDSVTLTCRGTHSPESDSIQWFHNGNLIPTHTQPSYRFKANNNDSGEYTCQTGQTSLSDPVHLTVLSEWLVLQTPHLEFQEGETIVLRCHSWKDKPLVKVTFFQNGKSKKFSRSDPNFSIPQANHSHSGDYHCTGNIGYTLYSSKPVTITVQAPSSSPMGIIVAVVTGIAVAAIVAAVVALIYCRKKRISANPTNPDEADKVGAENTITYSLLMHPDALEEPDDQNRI

T3: biotinylated CD32bECDHis (human, UniProt P31994 43-223, limits assumed, biotinylated (sites not given))
T3 sequence (looked up): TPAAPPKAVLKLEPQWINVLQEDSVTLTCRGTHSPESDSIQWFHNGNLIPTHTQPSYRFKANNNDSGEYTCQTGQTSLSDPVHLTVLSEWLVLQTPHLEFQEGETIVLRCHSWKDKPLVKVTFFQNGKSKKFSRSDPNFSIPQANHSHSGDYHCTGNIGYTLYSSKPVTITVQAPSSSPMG

T4: CD32bECDHis (human, UniProt P31994 43-223, limits assumed)
T4 construct: Produced in HEK-293F cells; also called extracellular domain of CD32b with C-terminal His tag; soluble CD32b
T4 sequence (looked up): T3 sequence (looked up)

B1: Antibody 038 (antibody, human IgG1, V domains shown)
VH: QVQLVESGGGVVQPGRSLRLSCAASGFTFSTYGMHWVRQAPGKGLEWVAVISHDGSDKYYADSVKGRFTISRDNSKNTLYLQMNSLRAEDTAVYYCARDQSIIETFDYWGQGTLVTVSS
VL: EIVLTQSPATLSLSPGERATLSCRASQSVSSYLAWYQQKPGQAPRLLIYDASNRATGIPARFSGSGSGTDFTLTISSLEPEDFAVYYCQQRSNWGFTFGPGTKVDIKR
notes: Human antibody; also called HuMab 038
B2: Antibody 024 (antibody, V domains shown)
VH: QVQLVQSGAEVKKPGASVKVSCKASGYTFTSYGLSWVRQAPGQGLEWMGWISPYNGNTHYAQKLQGRVTMTTDTSTSTAYMDLRSLRSDDTAVYYCARDSAAHGMDVWGQGTTVTVSS
VL: DIQMTQSPSSLSASVGDRVTITCRASQGISSWLAWYQQKPEKAPKSLIYAASSLQSGVPSRFSGSRSGTDFTLTISSLQPEDFATYYCQQYNSYPYTFGQGTKLEIKR
notes: also called HuMab 024
B3: Antibody 028 (antibody, V domains shown)
VH: B2 VH with L4V, A24T, L34I, P53A, H59K, V68L, S77T, D82E, T115S
VL: B2 VL
notes: List 1 gives no VL for antibody 028; The VL is therefore uncertain; also called HuMab 028
B4: Antibody 020 (antibody, V domains shown)
VH: B2 VH with A9G, A24T, L34I, P53A, H59K, V68L, S77T, D82E
VL: B2 VL with S63R, R66G
notes: also called HuMab 020
B5: Antibody 022 (antibody, V domains shown)
VH: B2 VH with Y80D, D99A
VL: B2 VL
notes: also called HuMab 022
B6: Antibody 026 (antibody, V domains shown)
VH: B2 VH with P53A, H59N
VL: B2 VL
notes: Human antibody; also called HuMab 026

These binders were tested against T1, full length CD32a on stably transfected … (assay: flow cytometry on IIA1.6-CD32a cells).
Method: (§1) After harvesting and counting, IIA1.6 cells stably transfected with full length CD32a and CD32b (van den Herik-Oudijk et al., 1994), control IIA1.6 cells and Daudi-luc cells were resuspended in PBS (1×10⁶ cells/ml). Cells were put in 96-well V-bottom plates (100 μl/well) and washed twice with FACS buffer (PBS supplemented with 0.1% BSA and 0.02% Na-azide). Thereafter, 50 μl of serially diluted HuMab in FACS buffer was added to the cells and incubated for 30 minutes at 4° C. After washing three times with FACS buffer, 50 μl of phycoerythrin (PE)-conjugated rabbit anti-human IgG (Jackson ImmunoResearch Europe), diluted 1:200 in FACS buffer, was added. After 30 minutes at 4° C. (in the dark), cells were washed three times, and specific binding of the HuMabs was detected by flow cytometry on a FACSCalibur (BD Biosciences). […] Binding curves were analyzed using non-linear regression (sigmoidal dose-response with variable slope) using GraphPad Prism V4.03 software (GraphPad Software, San Diego, Calif., USA).
Binder B1 has an EC50 of 3.48 nM.

Each binder was assayed against T2, full length CD32b2 on transfected … (assay: flow cytometry on IIA1.6-CD32b2 cells).
Method: as §1
To analyze binding of anti-CD32b HuMabs to CD32b1 and CD32b2, IIA1.6 cells transfected with full length CD32b1 or CD32b2 (van den Herik-Oudijk et al., 1994) were prepared as described supra. The assay was performed as described supra. Flow cytometry was performed on a FACS Canto II (BD Biosciences).
Work on B2 yielded an EC50 of 1.96 nM. Work on B3 yielded an EC50 of 2.18 nM. B1 showed an EC50 of 0.27 nM.

The binders below were run against T3, biotinylated CD32bECDHis (assay: competition ELISA, competitor 022).
Method: (§2) ELISA wells were coated overnight at 4° C. with anti-CD32b HuMabs serially diluted in PBS. The ELISA wells were washed with PBS, blocked for one hour at room temperature with 2% (v/v) chicken serum (Gibco, Paisley, Scotland) in PBS and washed again with PBS. Subsequently, the immobilized antibodies were incubated with biotinylated CD32bECDHis serially diluted in PBSTC. After washing with PBS/Tween, bound biotinylated CD32bECDHis was incubated with Streptavidin-poly-HRP (Sanquin, Amsterdam, The Netherlands) for 1 hr at RT an the reaction was developed as described supra.
(§3) To this end, ELISA wells coated with anti-CD32b HuMabs were incubated in the presence of an excess of CD32b-specific antibody and the predetermined concentration of biotinylated CD32bECDHis in fluid phase. The reaction was developed as described.
For B2, the “% residual binding” value was 17%. For B4, the “% residual binding” value was 6%. For B5, the “% residual binding” value was 14%. For B6, the “% residual binding” value was 1%. B3 was tested, and the “% residual binding” value was 6%. In the case of B1, the “% residual binding” value is reported as 350%.

Each binder was assayed against T3, biotinylated CD32bECDHis (assay: competition ELISA, competitor 028).
Method: as §2, §3
B2 was tested, and the “% residual binding” value was 34%. B4 was tested, and the “% residual binding” value was 13%. B5 was tested, and the “% residual binding” value was 27%. For B6, the “% residual binding” value was 3%. With B3 the “% residual binding” value was 15%. In the case of B1, the “% residual binding” value is reported as 317%.

These binders were tested against T4, CD32bECDHis (assay: SPR BIAcore 3000, antibody immobilized, CD32bECDHis analyte).
Method: Antibody binding to CD32a and CD32b was analyzed by surface plasmon resonance in a BIAcore 3000 (GE Healthcare). CD32aECDHis and CD32bECDHis derived from HEK293 cells were used for the analysis. HuMab antibodies were immobilized on the CM-5 sensor chip according to the procedure recommended by the manufacturer. Briefly, after surface activation by EDC and NHS HuMab antibody was injected over the activated CM-5 surface in 10 mM sodium-acetate, pH ranging from 4.0 to 5.5 at 5 μl/min. followed by 1 M Ethanolamine for deactivation. Concentration series of CD32bECDHis in HBS-EP buffer were injected over the immobilized antibodies at a flow rate of 30 μl/min for 180 sec. Regeneration of the HuMab surface was performed by injection of 10 mM Glycine-HCl pH 2.0 or 10 mM sodium acetate pH 3.0. […] Kinetic analysis is performed using double reference subtraction and model 1:1 (langmuir) binding analysis. Specificity was studied by injecting CD32aECDHis at a concentration of […] over immobilized HuMab and isotype control antibodies under the same conditions as for the CD32b measurements.
For B2, the Kd was 0.9 nM, the koff was 0.00126 s⁻¹ and the kon was 1.44e+06 M⁻¹ s⁻¹. B4 gave a Kd of 2.4 nM, a koff of 0.00363 s⁻¹ and a kon of 1.54e+06 M⁻¹ s⁻¹. B5 was tested, and the Kd was 0.7 nM, the koff was 0.00103 s⁻¹ and the kon was 1.48e+06 M⁻¹ s⁻¹. For B6, the Kd was 1.3 nM, the koff was 0.00179 s⁻¹ and the kon was 1.4e+06 M⁻¹ s⁻¹. B3 showed a Kd of 1.3 nM, a koff of 0.00199 s⁻¹ and a kon of 1.58e+06 M⁻¹ s⁻¹. B1 gave a Kd of 1 nM, a koff of 0.00156 s⁻¹ and a kon of 1.54e+06 M⁻¹ s⁻¹.

These binders were tested against T1, full length CD32a on stably transfected … (assay: flow cytometry on IIA1.6 cells expressing full length CD32a, PE anti-human IgG, MFI).
Method: as §1
B2: no binding (tested: about 7e-8 M). B4: no binding (tested: about 7e-8 M). B5: no binding (tested: about 7e-8 M). B6: no binding (tested: about 7e-8 M). B3: no binding (tested: about 7e-8 M).
